Data from patent US20160237160A1 (Bayer, published 2016).

B1: 18.3.3(TPP-2193) (antibody, mouse IgG2a, kappa, V domains shown)
VH: EVKLGESGGGLVQPGGSMKLSCVASGFPFTKYWMNWVRQSPEKGLEWVAEIRLKSDNYATHYAESAKGRFTISRDDSRSSVYLQMNNLRAEDTAIYYCSPTYADTMDYWGQGTSVTVSS
VL: DIVLTQSPASLAVSLGQRATISCKASQSVSTSTYSYMQWYQQRPGQSPKLLIKYASKLDSGVPARFSGSGSGTDFTLNIHPVEEEDTATYYCQHSWELPYTFGGGTRLEIKR
notes: Murine IgG2a; variable domains from WO2009/020933 with constant region added
B2: TPP-1853 (antibody, human IgG1, kappa, V domains shown)
VH: EVQLLESGGGLVQPGGSLRLSCAASGFTFSPYPMMWVRQAPGKGLEWVSYISPSGGKTHYADSVKGRFTISRDNSKNTLYLQMNSLRAEDTAVYYCARGGDTYFDYFDYWGQGTLVTVSS
VL: DIQMTQSPATLSASVGDRVTITCRASQSISSYLNWYQQKPGKAPKLLIYNASSLQSGVPSRFSGSGSGTDFTLTISSLQPEDFATYYCQQSYTSPGITFGPGTKVEIKR
notes: Human IgG1
B3: TPP-2093 (antibody, human IgG1, kappa, V domains shown)
VH: EVQLLESGGGLVQPGGSLRLSCAASGFTFSPYPMMWVRQAPGKGLEWVSYISPSGGSTHYADSVKGRFTISRDNSKNTLYLQMNSLRAEDTAVYYCARGGDTYFDYFDYWGQGTLVTVSS
VL: DIQMTQSPSSLSASVGDRVTITCRASQSISSYLNWYQQKPGKAPKLLIYQASSLQSGVPSRFSGSGSGTDFTLTISSLQPEDFATYYCQQSYTSPFITFGQGTKVEIKR
notes: Human IgG1
B4: TPP-883 (antibody, human IgG1, kappa, V domains shown)
VH: EVQLLESGGGLVQPGGSLRLSCAASGFTFSPYPMMWVRQAPGKGLEWVSYISPSGGKTHYADSVKGRFTISRDNSKNTLYLQMNSLRAEDTAVYYCARGGDGYFDYFDYWGQGTLVTVSS
VL: DIQMTQSPATLSASVGDRVTITCRASQSISSYLNWYQQKPGKAPKLLIYAASSLQSGVPSRFSGSGSGTDFTLTISSLQPEDFATYYCQQSYSSPGITFGPGTKVEIKR
notes: Human IgG1; parent antibody from the phage library
B5: TPP-2148 (antibody, human IgG1, kappa, V domains shown)
VH: EVQLLESGGGLVQPGGSLRLSCAASGFTFSPYPMMWVRQAPGKGLEWVSYISPSGGKTHYADSVKGRFTISRDNSKNTLYLQMNSLRAEDTAVYYCARGGDTYFDYFDYWGQGTLVTVSS
VL: DIQMTQSPATLSASVGDRVTITCRASQSISSYLNWYQQKPGKAPKLLIYQASSLQSGVPSRFSGSGSGTDFTLTISSLQPEDFATYYCQQSYTSPFITFGPGTKVEIKR
notes: Human IgG1
B6: TPP-1858 (antibody, human IgG1, kappa, V domains shown)
VH: EVQLLESGGGLVQPGGSLRLSCAASGFTFSPYPMMWVRQAPGKGLEWVSYISPSGGKTHYADSVKGRFTISRDNSKNTLYLQMNSLRAEDTAVYYCARGGDTYFDYFDYWGQGTLVTVSS
VL: DIQMTQSPATLSASVGDRVTITCRASQSISSYLNWYQQKPGKAPKLLIYNASSLQSGVPSRFSGSGSGTDFTLTISSLQPEDFATYYCQQSYTSPFITFGPGTKVEIKR
notes: Human IgG1
B7: TPP-2149 (antibody, human IgG1, kappa, V domains shown)
VH: EVQLLESGGGLVQPGGSLRLSCAASGFTFSPYPMIWVRQAPGKGLEWVSYISPSGGKTHYADSVKGRFTISRDNSKNTLYLQMNSLRAEDTAVYYCARGGDTYFDYFDYWGQGTLVTVSS
VL: DIQMTQSPATLSASVGDRVTITCRASQSISGYLNWYQQKPGKAPKLLIYQASSLQSGVPSRFSGSGSGTDFTLTISSLQPEDFATYYCQQSYTSPFITFGPGTKVEIKR
notes: Human IgG1
B8: TPP-1857 (antibody, human IgG1, kappa, V domains shown)
VH: EVQLLESGGGLVQPGGSLRLSCAASGFTFSPYPMMWVRQAPGKGLEWVSYISPSGGKTHYADSVKGRFTISRDNSKNTLYLQMNSLRAEDTAVYYCARGGDTYFDYFDYWGQGTLVTVSS
VL: DIQMTQSPATLSASVGDRVTITCRASQSISGYLNWYQQKPGKAPKLLIYNASSLQSGVPSRFSGSGSGTDFTLTISSLQPEDFATYYCQQSYTSPGITFGPGTKVEIKR
notes: Human IgG1
B9: TPP-1854 (antibody, human IgG1, kappa, V domains shown)
VH: EVQLLESGGGLVQPGGSLRLSCAASGFTFSPYPMIWVRQAPGKGLEWVSYISPSGGKTHYADSVKGRFTISRDNSKNTLYLQMNSLRAEDTAVYYCARGGDTYFDYFDYWGQGTLVTVSS
VL: DIQMTQSPATLSASVGDRVTITCRASQSISGYLNWYQQKPGKAPKLLIYNASSLQSGVPSRFSGSGSGTDFTLTISSLQPEDFATYYCQQSYTSPFITFGPGTKVEIKR
notes: Human IgG1
B10: ITEM-4 (antibody, V domains shown)
VH: QVQLQQSGPELVKPGASVKMSCKASGYTFTDFIIAWVKQRTGQGLEWIGEIYPGTGRTYYSEKFRGKATLTADKSSNTAYMQLSSLTSVDSAVYFCARRTIYYDYDGDYWGQGTTLTVSS
VL: DIVMTQAAFSNPVTLGTSASISCRSSKSLLHSNGITYLYWYLQKPGQSPQLLIYQMSNLASGVPDRFSSSGSGTDFTLRISRVEAEDVGVYYCAHNLELPWTFGGGTKLELK

Key:
[1] = biological target: T1, TPP-2305 (hTNFRSF12Aaa28-80) (Human, UniProt Q9NP84 28-80); assay: SPR (Biacore T100), IgG captured, TPP-2305 injected, 1:1 model
T1 construct: monomeric extracellular domain, bought; also called purified recombinant human TWEAKR protein; soluble monomeric TWEAKR
Procedure: Binding affinities of anti-TWEAKR antibodies were determined by surface plasmon resonance analysis on a Biacore T100 instrument (GE Healthcare Biacore, Inc.). Antibodies were immobilized onto a CM5 sensor chip through an indirect capturing reagent, anti-human IgG(Fc). […] Anti-TWEAKR antibodies were injected at a concentration of 10 μg/ml at 10 μl/min for 10 sec.
Sensorgrams were generated after in-line reference cell correction followed by buffer sample subtraction. The dissociation equilibrium constant (KD) was calculated based on the ratio of association (kₒₙ) and dissociation rated (koff) constants, obtained by fitting sensorgrams with a first order 1:1 binding model.

[2] = biological target: T2, TPP-599 (HUMAN-TNFRSF12Aaa28-80-hIgG1-Fc) (human); assay: ELISA, TWEAKR-Fc coated 62 ng/ml, biotin-IgG titrated; + means IC50 1 to 150 pM;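 also: biotinylated IgG binding to immobilized TWEAKR-Fc muteins, detected with Streptavidin-HRP and Amplex Red, IC50 derived from fitted dose-response curves of twofold serial dilutions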
T2 construct: dimeric; also called human TWEAKR Fc; TWEAKR-Fc
Procedure: (§1) To collect dose-response data, the different TWEAKR-Fc muteins were coated with a low concentration (62 ng/ml) in a 384-well Maxisorb ELISA plate and a serial 2fold dilution of biotinylated IgG starting with a concentration of 100 nM was used as soluble binding partner. Detection was done with Streptavidin-HRP and Amplex Red.
(§2) The dose-response data were fitted and IC50s determined.

[3] = biological target: TPP-1986 (hTNFRSF12Aaa28-80-T33Q-hIgG1-Fc) (human); assay: as above
Procedure: as §1, §2

[4] = biological target: TPP-1987 (hTNFRSF12Aaa28-80-S40R-hIgG1-Fc) (human); assay: as above
Procedure: as §1, §2

[5] = biological target: TPP-1988 (hTNFRSF12Aaa28-80-M50A-hIgG1-Fc) (human); assay: as above
Procedure: as §1, §2

[6] = biological target: TPP-1989 (hTNFRSF12Aaa28-80-H60K-hIgG1-Fc) (human); assay: as above
Procedure: as §1, §2

[7] = biological target: TPP-1990 (hTNFRSF12Aaa28-80-L65Q-hIgG1-Fc) (human); assay: as above
Procedure: as §1, §2

[8] = biological target: T3, TWEAKR (TNFRSF12A, FN14), human, on tumor cell lines (human, UniProt Q9NP84 28-129); assay: cell-based or functional assay
[9] = biological target: T4, TPP-2614 (TweakR-ECD-34-68-hIgGFc-His-D47A) (human); assay: ELISA, IgG coated 1 ug/ml, TWEAKR variant 250 ng/ml, anti-HIS HRP (FIG. 6C)
T4 construct: also called D47A TWEAKR mutein
Procedure: Antibodies were coated (1 μg/ml), TWEAKR variant was added at 250 ng/ml, detection via anti-HIS HRP. […] Antibodies were coated (1 μg/ml), TWEAKR variant was added 250 ng/ml, detection via anti-HIS HRP.

[10] = biological target: T3, TWEAKR (TNFRSF12A, FN14), human, on …; assay: cell-based or functional assay; remark: listed apart in the source
[11] = biological target: T3, TWEAKR (TNFRSF12A, FN14), human, on …; assay: FACS, A375 cells, 10 ug/ml
[12] = biological target: T3, TWEAKR (TNFRSF12A, FN14), human, on …; assay: FACS, HT29 cells, 10 ug/ml
[13] = biological target: T3, TWEAKR (TNFRSF12A, FN14), human, on …; assay: FACS, WiDr cells, 10 ug/ml
Procedure: (§3) To determine the binding characteristics of the anti-TWEAKR antibodies on mouse and human cancer cell lines, binding was tested by flow cytometry to a panel of cell lines. […] Cells were suspended at approximately 10⁵ cells/well in FACS buffer (PBS without Ca/Mg, containing 3% FCS, Biochrom). Cells were centrifuged (250 g, 5 min, 4° C.) and supernatant discarded. Cells were resuspended in dilutions of the antibodies of interest (10 μg/ml in 80 μl if not indicated otherwise) in FACS buffer, and incubated on ice for 1 h. […] After incubation for 1 h on ice cells were again washed with cold FACS buffer, resuspended in 1000 FACS buffer and analyzed by flow cytometry using a FACS-Array (BD Biosciences). Results are calculated as Geo Mean of fluorescence detected by the antibody of interest subtracted by background fluorescence as measured by detection with the secondary antibody alone. Values are scored according to the following system: Geo Mean−Geo Mean of secondary antibody alone >10: +, >100: ++, >1000: +++, 10000: ++++, close to category border in ( ).

[14] = biological target: T3, TWEAKR (TNFRSF12A, FN14), human, on …; assay: FACS, 786-O cells, 10 ug/ml
[15] = biological target: T3, TWEAKR (TNFRSF12A, FN14), human, on …; assay: FACS, SKOV-3 cells, 10 ug/ml
Procedure: as §3

[16] = biological target: T3, TWEAKR (TNFRSF12A, FN14), human, on …; assay: FACS, NCI-H322 cells, 10 ug/ml
Procedure: as §3

[17] = biological target: T3, TWEAKR (TNFRSF12A, FN14), human, on …; assay: cell-based or functional assay; remark: listed apart in the source

Row | Binder | Kd [1] [nM] | koff [1] [s⁻¹] | kon [1] [M⁻¹ s⁻¹] | Fold induction of Caspase 3/7, 786-O cells, 100 ug/ml [8] [fold] | Fold induction of Caspase 3/7, HT-29 cells, 100 ug/ml [8] [fold] | Fold induction of Caspase 3/7, NCI-H322 cells, 100 ug/ml [8] [fold] | % binding normalized by wt binding signal [9] [%] | other results
1 | B1 | 1.7 | 0.0285 | 1.64e+07 |  |  |  |  | binding result [2]: binds; binding result [3]: binds; binding result [4]: binds; binding result [5]: binds; binding result [6]: binds; binding result [7]: binds
2 | B2 |  |  |  | 1.88 | 2.53 | 1.94 | < 5 | 
3 | B3 | 22.1 | 0.09 | 4.1e+06 | 1.43 | 2.54 |  | < 5 | % Inhibition of proliferation, A253 cells, 72h, 100 ug/ml [10]: > 100%; % Inhibition of proliferation, HT-29 cells, 24h, 100 ug/ml [10]: > 100%; GeoMean of Fluorescence minus GeoMean with the secondary antibody only [11]: 255; GeoMean of Fluorescence minus GeoMean with the secondary antibody only [12]: 875; GeoMean of Fluorescence minus GeoMean with the secondary antibody only [13]: 1720; GeoMean of Fluorescence minus GeoMean with the secondary antibody only [14]: 18200; GeoMean of Fluorescence minus GeoMean with the secondary antibody only [15]: 2180; GeoMean of Fluorescence minus GeoMean with the secondary antibody only [16]: 160
4 | B4 | 206 | 0.91 | 4.4e+06 |  |  |  | < 5 | 
5 | B5 | 24.5 | 0.13 | 5.1e+06 |  |  |  | < 5 | 
6 | B6 |  |  |  | 2.22 | 2.41 | 2.01 | < 5 | 
7 | B7 | 12.1 | 0.1 | 8.4e+06 |  |  |  | < 5 | 
8 | B8 |  |  |  | 1.76 | 2.37 | 1.89 | < 5 | 
9 | B9 |  |  |  | 2.11 | 2.7 | 1.98 | < 5 | IL-8 release from A375 cells at 100 ug/ml, % of the activation by 300 ng/ml TWEAK ligand [17]: 129%
10 | B10 | 0.7 |  |  |  |  |  |  | 
